Results on twelve molecules are retold here after US20230406885A1, “CYCLIC PEPTIDES FOR TRAPPING INTERLEUKIN-1 BETA” (MERCK SHARP & DOHME LLC, priority 2022, published 2023).

B1: SEQ ID NO: 93 (peptide)
peptide: cyclo([TyrEtNAc]W[Phe(4-COOH)]G[Pro(trans-4-NH2)][1Nal(3S-Me)]D[dNMeA]G[Bip(4'-COOH)][1Nal][Dab][Aib][hTyr])
SMILES: CC(=O)NCCOc1ccc(C[C@@H]2NC(=O)[C@H](CCc3ccc(O)cc3)NC(=O)C(C)(C)NC(=O)[C@H](CCN)NC(=O)[C@H](Cc3cccc4ccccc34)NC(=O)[C@H](Cc3ccc(-c4ccc(C(=O)O)cc4)cc3)NC(=O)CNC(=O)[C@@H](C)N(C)C(=O)[C@H](CC(=O)O)NC(=O)[C@H]([C@@H](C)c3cccc4ccccc34)NC(=O)[C@@H]3C[C@@H](N)CN3C(=O)CNC(=O)[C@H](Cc3ccc(C(=O)O)cc3)NC(=O)[C@H](Cc3c[nH]c4ccccc34)NC2=O)cc1
B2: SEQ ID NO: 9 (peptide)
peptide: cyclo([3AzaTyrEtNAc]W[Phe(4-COOH)]G[Pro(trans-4-NH2)][Trp(βS-Me,4-F)]D[dNMeA]G[Bip(4'-COOH)]KL[dA][hTyr])
SMILES: CC(=O)NCCOc1ccc(C[C@@H]2NC(=O)[C@H](CCc3ccc(O)cc3)NC(=O)[C@@H](C)NC(=O)[C@H](CC(C)C)NC(=O)[C@H](CCCCN)NC(=O)[C@H](Cc3ccc(-c4ccc(C(=O)O)cc4)cc3)NC(=O)CNC(=O)[C@@H](C)N(C)C(=O)[C@H](CC(=O)O)NC(=O)[C@H]([C@@H](C)c3c[nH]c4cccc(F)c34)NC(=O)[C@@H]3C[C@@H](N)CN3C(=O)CNC(=O)[C@H](Cc3ccc(C(=O)O)cc3)NC(=O)[C@H](Cc3c[nH]c4ccccc34)NC2=O)cn1
B3: SEQ ID NO: 91 (peptide)
peptide: cyclo([TyrEtNAc]W[Phe(4-COOH)]G[Pro(trans-4-NH2)][1Nal(3S-Me)]D[dNMeA]G[Bip(4'-COOH)][Ala(indolin-1-yl)]G[dDab][h3Pal(5-CN)])
SMILES: CC(=O)NCCOc1ccc(C[C@@H]2NC(=O)[C@H](CCc3cncc(C#N)c3)NC(=O)[C@@H](CCN)NC(=O)CNC(=O)[C@H](CN3CCc4ccccc43)NC(=O)[C@H](Cc3ccc(-c4ccc(C(=O)O)cc4)cc3)NC(=O)CNC(=O)[C@@H](C)N(C)C(=O)[C@H](CC(=O)O)NC(=O)[C@H]([C@@H](C)c3cccc4ccccc34)NC(=O)[C@@H]3C[C@@H](N)CN3C(=O)CNC(=O)[C@H](Cc3ccc(C(=O)O)cc3)NC(=O)[C@H](Cc3c[nH]c4ccccc34)NC2=O)cc1
B4: SEQ ID NO: 90 (peptide)
peptide: cyclo([TyrEtNAc]W[Phe(4-COOH)]G[Pro(trans-4-NH2)][1Nal(3S-Me)]D[dNMeA]G[Bip(4'-COOH)][Ala(indazol-1-yl)]G[dDab][h3Pal(5-CN)])
SMILES: CC(=O)NCCOc1ccc(C[C@@H]2NC(=O)[C@H](CCc3cncc(C#N)c3)NC(=O)[C@@H](CCN)NC(=O)CNC(=O)[C@H](Cn3ncc4ccccc43)NC(=O)[C@H](Cc3ccc(-c4ccc(C(=O)O)cc4)cc3)NC(=O)CNC(=O)[C@@H](C)N(C)C(=O)[C@H](CC(=O)O)NC(=O)[C@H]([C@@H](C)c3cccc4ccccc34)NC(=O)[C@@H]3C[C@@H](N)CN3C(=O)CNC(=O)[C@H](Cc3ccc(C(=O)O)cc3)NC(=O)[C@H](Cc3c[nH]c4ccccc34)NC2=O)cc1
B5: SEQ ID NO: 94 (peptide)
peptide: cyclo([TyrEtNAc]W[Phe(4-COOH)]G[Pro(trans-4-NH2)][1Nal(3S-Me)]D[dNMeA]G[Bip(4'-COOH)][1Nal][Dap][Aib][h3Pal(5-CN)])
SMILES: CC(=O)NCCOc1ccc(C[C@@H]2NC(=O)[C@H](CCc3cncc(C#N)c3)NC(=O)C(C)(C)NC(=O)[C@H](CN)NC(=O)[C@H](Cc3cccc4ccccc34)NC(=O)[C@H](Cc3ccc(-c4ccc(C(=O)O)cc4)cc3)NC(=O)CNC(=O)[C@@H](C)N(C)C(=O)[C@H](CC(=O)O)NC(=O)[C@H]([C@@H](C)c3cccc4ccccc34)NC(=O)[C@@H]3C[C@@H](N)CN3C(=O)CNC(=O)[C@H](Cc3ccc(C(=O)O)cc3)NC(=O)[C@H](Cc3c[nH]c4ccccc34)NC2=O)cc1
B6: SEQ ID NO: 92 (peptide)
peptide: cyclo([TyrEtNAc]W[Phe(4-COOH)]G[Pro(trans-4-NH2)][1Nal(3S-Me)]D[dNMeA]G[Bip(4'-COOH)][1Nal][Dab][Aib]G)
SMILES: CC(=O)NCCOc1ccc(C[C@@H]2NC(=O)CNC(=O)C(C)(C)NC(=O)[C@H](CCN)NC(=O)[C@H](Cc3cccc4ccccc34)NC(=O)[C@H](Cc3ccc(-c4ccc(C(=O)O)cc4)cc3)NC(=O)CNC(=O)[C@@H](C)N(C)C(=O)[C@H](CC(=O)O)NC(=O)[C@H]([C@@H](C)c3cccc4ccccc34)NC(=O)[C@@H]3C[C@@H](N)CN3C(=O)CNC(=O)[C@H](Cc3ccc(C(=O)O)cc3)NC(=O)[C@H](Cc3c[nH]c4ccccc34)NC2=O)cc1
B7: SEQ ID NO: 95 (peptide)
peptide: cyclo([TyrEtNAc]W[Phe(4-COOH)]G[Pro(trans-4-NH2)][1Nal(3S-Me)]D[dNMeA]G[Bip(4'-COOH)][1Nal]L[Aib]G)
SMILES: CC(=O)NCCOc1ccc(C[C@@H]2NC(=O)CNC(=O)C(C)(C)NC(=O)[C@H](CC(C)C)NC(=O)[C@H](Cc3cccc4ccccc34)NC(=O)[C@H](Cc3ccc(-c4ccc(C(=O)O)cc4)cc3)NC(=O)CNC(=O)[C@@H](C)N(C)C(=O)[C@H](CC(=O)O)NC(=O)[C@H]([C@@H](C)c3cccc4ccccc34)NC(=O)[C@@H]3C[C@@H](N)CN3C(=O)CNC(=O)[C@H](Cc3ccc(C(=O)O)cc3)NC(=O)[C@H](Cc3c[nH]c4ccccc34)NC2=O)cc1
B8: SEQ ID NO: 85 (peptide)
peptide: cyclo([Phe(4-(4-Ac-piperazinyl))]W[Phe(4-COOH)]G[Pro(trans-4-NH2)][Trp(4-Cl)(βS-Me)]D[dNMeA]G[Bip(4'-COOH)]WG[dDab][hTyr])
SMILES: CC(=O)N1CCN(c2ccc(C[C@@H]3NC(=O)[C@H](CCc4ccc(O)cc4)NC(=O)[C@@H](CCN)NC(=O)CNC(=O)[C@H](Cc4c[nH]c5ccccc45)NC(=O)[C@H](Cc4ccc(-c5ccc(C(=O)O)cc5)cc4)NC(=O)CNC(=O)[C@@H](C)N(C)C(=O)[C@H](CC(=O)O)NC(=O)[C@H]([C@@H](C)c4c[nH]c5cccc(Cl)c45)NC(=O)[C@@H]4C[C@@H](N)CN4C(=O)CNC(=O)[C@H](Cc4ccc(C(=O)O)cc4)NC(=O)[C@H](Cc4c[nH]c5ccccc45)NC3=O)cc2)CC1
B9: SEQ ID NO: 89 (peptide)
peptide: cyclo([TyrEtNAc]W[Phe(4-COOH)]G[Pro(trans-4-NH2)][1Nal(3S-Me)]A[dNMeA]G[Bip(4'-COOH)]W[Dap][dA][hTyr])
SMILES: CC(=O)NCCOc1ccc(C[C@@H]2NC(=O)[C@H](CCc3ccc(O)cc3)NC(=O)[C@@H](C)NC(=O)[C@H](CN)NC(=O)[C@H](Cc3c[nH]c4ccccc34)NC(=O)[C@H](Cc3ccc(-c4ccc(C(=O)O)cc4)cc3)NC(=O)CNC(=O)[C@@H](C)N(C)C(=O)[C@H](C)NC(=O)[C@H]([C@@H](C)c3cccc4ccccc34)NC(=O)[C@@H]3C[C@@H](N)CN3C(=O)CNC(=O)[C@H](Cc3ccc(C(=O)O)cc3)NC(=O)[C@H](Cc3c[nH]c4ccccc34)NC2=O)cc1
B10: SEQ ID NO: 88 (peptide)
peptide: cyclo([PyrimAla4AcPip]W[Phe(4-COOH)]G[Pro(trans-4-NH2)][1Nal(3S-Me)]D[dNMeA]G[Bip(4'-COOH)]W[Dap][dA][hTyr])
SMILES: CC(=O)N1CCN(c2ncc(C[C@@H]3NC(=O)[C@H](CCc4ccc(O)cc4)NC(=O)[C@@H](C)NC(=O)[C@H](CN)NC(=O)[C@H](Cc4c[nH]c5ccccc45)NC(=O)[C@H](Cc4ccc(-c5ccc(C(=O)O)cc5)cc4)NC(=O)CNC(=O)[C@@H](C)N(C)C(=O)[C@H](CC(=O)O)NC(=O)[C@H]([C@@H](C)c4cccc5ccccc45)NC(=O)[C@@H]4C[C@@H](N)CN4C(=O)CNC(=O)[C@H](Cc4ccc(C(=O)O)cc4)NC(=O)[C@H](Cc4c[nH]c5ccccc45)NC3=O)cn2)CC1
B11: SEQ ID NO: 97 (peptide)
peptide: cyclo([TyrEtNAc]W[Phe(4-COOH)]G[Pro(trans-4-NH2)][1Nal(3S-Me)]D[dNMeA]G[Bip(4'-COOH)][1Nal]L[dA]A)
SMILES: CC(=O)NCCOc1ccc(C[C@@H]2NC(=O)[C@H](C)NC(=O)[C@@H](C)NC(=O)[C@H](CC(C)C)NC(=O)[C@H](Cc3cccc4ccccc34)NC(=O)[C@H](Cc3ccc(-c4ccc(C(=O)O)cc4)cc3)NC(=O)CNC(=O)[C@@H](C)N(C)C(=O)[C@H](CC(=O)O)NC(=O)[C@H]([C@@H](C)c3cccc4ccccc34)NC(=O)[C@@H]3C[C@@H](N)CN3C(=O)CNC(=O)[C@H](Cc3ccc(C(=O)O)cc3)NC(=O)[C@H](Cc3c[nH]c4ccccc34)NC2=O)cc1
B12: SEQ ID NO: 96 (peptide)
peptide: cyclo([TyrEtNAc]W[Phe(4-COOH)]G[Pro(trans-4-NH2)][1Nal(3S-Me)]D[dNMeA]G[Bip(4'-COOH)][1Nal]L[Aib][hTyr])
SMILES: CC(=O)NCCOc1ccc(C[C@@H]2NC(=O)[C@H](CCc3ccc(O)cc3)NC(=O)C(C)(C)NC(=O)[C@H](CC(C)C)NC(=O)[C@H](Cc3cccc4ccccc34)NC(=O)[C@H](Cc3ccc(-c4ccc(C(=O)O)cc4)cc3)NC(=O)CNC(=O)[C@@H](C)N(C)C(=O)[C@H](CC(=O)O)NC(=O)[C@H]([C@@H](C)c3cccc4ccccc34)NC(=O)[C@@H]3C[C@@H](N)CN3C(=O)CNC(=O)[C@H](Cc3ccc(C(=O)O)cc3)NC(=O)[C@H](Cc3c[nH]c4ccccc34)NC2=O)cc1

*1 amine or outer side, *2 acyl side, *3 side chain or, on linkers, in order; H or OH if unused. [ ]: non-standard residue; d: D form. TyrEtNAc = L-tyrosine O-ethyl acetamide, (S)-3-(4-(2-acetamidoethoxy)phenyl)-2-aminopropanoic acid, CC(=O)NCCOc1ccc(C[C@H](N[*:1])C(=O)[*:2])cc1; PyrimAla4AcPip = (S)-3-(2-(4-acetylpiperazin-1-yl)pyrimidin-5-yl)-2-aminopropanoic acid, CC(=O)N1CCN(c2ncc(C[C@H](N[*:1])C(=O)[*:2])cn2)CC1; 3AzaTyrEtNAc = (S)-3-(6-(2-acetamidoethoxy)pyridin-3-yl)-2-aminopropanoic acid, CC(=O)NCCOc1ccc(C[C@H](N[*:1])C(=O)[*:2])cn1; Phe(4-(4-Ac-piperazinyl)) = CC(=O)N1CCN(c2ccc(C[C@H](N)C(=O)O)cc2)CC1; Trp(4-Cl)(βS-Me) = C[C@@H](c1c[nH]c2cccc(Cl)c12)[C@H](N)C(=O)O; Pro(trans-4-NH2) = O=C([C@@H]1C[C@@H](N[*:3])CN1[*:1])[*:2]; Trp(βS-Me,4-F) = C[C@@H](c1c[nH]c2cccc(F)c12)[C@H](N)C(=O)O; Bip(4'-COOH) = N[C@@H](Cc1ccc(-c2ccc(C(=O)O)cc2)cc1)C(=O)O; 1Nal(3S-Me) = C[C@@H](c1cccc2ccccc12)[C@H](N)C(=O)O; Ala(indazol-1-yl) = N[C@@H](Cn1ncc2ccccc21)C(=O)O; Ala(indolin-1-yl) = N[C@@H](CN1CCc2ccccc21)C(=O)O; Phe(4-COOH) = N[C@@H](Cc1ccc(C(=O)O)cc1)C(=O)O; h3Pal(5-CN) = N#Cc1cncc(CC[C@H](N)C(=O)O)c1; 1Nal = N[C@@H](Cc1cccc2ccccc12)C(=O)O; hTyr = N[C@@H](CCc1ccc(O)cc1)C(=O)O; dDab = NCC[C@@H](N)C(=O)O; dNMeA = CN[C@H](C)C(=O)O; Dab = NCC[C@H](N)C(=O)O; Dap = NC[C@H](N)C(=O)O; Aib = CC(C)(N)C(=O)O

The target of the experiment is Recombinant human IL-1β (BioLegend 579404) (human, UniProt P01584 117-269). Kind of experiment: cell-based or functional assay.
For B1, the “MRC5 IC50” value was found to be 0.12 nM.
As to B2, the “MRC5 IC50” value was determined as 0.118 nM.
The figure for B3 is 0.0234 nM; for B4 it is 0.0507 nM.
As for B5, the “MRC5 IC50” value came to 0.0639 nM.
The figure for B6 is 0.457 nM; for B7 it is 0.422 nM.
The figure for B8 is 0.0543 nM.
For the molecule B9, the “MRC5 IC50” value worked out at 0.271 nM.
With B10 the figure was 0.0945 nM; with B11, 0.294 nM; with B12, 0.464 nM.
